Measurements as given in paper PMC5490839 (Nature immunology, 2016).
Where no end group is shown, it is not given here. The star is where a group is joined. Maleimide‑PEG2‑Biotin = EZ Link Maleimide-PEG2-Biotin, O=C(CCCC[C@@H]1SC[C@@H]2NC(=O)N[C@@H]21)NCCOCCOCCNC(=O)CCN1C(=O)CC(*)C1=O

Assays:
[1] = target: T1, Zap70 D461N (full length, kinase-inactive) (human, UniProt P43403 1-619, D461N); assay: ELISA
T1 sequence (looked up): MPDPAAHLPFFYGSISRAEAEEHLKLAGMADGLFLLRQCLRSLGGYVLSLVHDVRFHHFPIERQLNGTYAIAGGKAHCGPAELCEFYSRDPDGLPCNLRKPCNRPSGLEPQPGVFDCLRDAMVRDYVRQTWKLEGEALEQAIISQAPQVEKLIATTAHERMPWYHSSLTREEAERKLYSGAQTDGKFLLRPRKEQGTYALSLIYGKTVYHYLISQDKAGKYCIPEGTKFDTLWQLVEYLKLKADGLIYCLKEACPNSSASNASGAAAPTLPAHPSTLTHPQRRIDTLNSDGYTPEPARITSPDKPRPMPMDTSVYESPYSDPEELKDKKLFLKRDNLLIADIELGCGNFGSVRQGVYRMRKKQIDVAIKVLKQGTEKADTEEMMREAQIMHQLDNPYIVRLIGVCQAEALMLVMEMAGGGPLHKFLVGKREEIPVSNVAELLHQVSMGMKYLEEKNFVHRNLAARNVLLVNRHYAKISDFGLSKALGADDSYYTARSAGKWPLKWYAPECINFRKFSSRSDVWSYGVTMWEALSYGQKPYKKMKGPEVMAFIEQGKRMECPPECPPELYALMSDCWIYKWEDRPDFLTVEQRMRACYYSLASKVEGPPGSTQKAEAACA

[2] = target: T2, Zap70 K369R (full length) (human, UniProt P43403 1-619, K369R); assay: ELISA
T2 sequence (looked up): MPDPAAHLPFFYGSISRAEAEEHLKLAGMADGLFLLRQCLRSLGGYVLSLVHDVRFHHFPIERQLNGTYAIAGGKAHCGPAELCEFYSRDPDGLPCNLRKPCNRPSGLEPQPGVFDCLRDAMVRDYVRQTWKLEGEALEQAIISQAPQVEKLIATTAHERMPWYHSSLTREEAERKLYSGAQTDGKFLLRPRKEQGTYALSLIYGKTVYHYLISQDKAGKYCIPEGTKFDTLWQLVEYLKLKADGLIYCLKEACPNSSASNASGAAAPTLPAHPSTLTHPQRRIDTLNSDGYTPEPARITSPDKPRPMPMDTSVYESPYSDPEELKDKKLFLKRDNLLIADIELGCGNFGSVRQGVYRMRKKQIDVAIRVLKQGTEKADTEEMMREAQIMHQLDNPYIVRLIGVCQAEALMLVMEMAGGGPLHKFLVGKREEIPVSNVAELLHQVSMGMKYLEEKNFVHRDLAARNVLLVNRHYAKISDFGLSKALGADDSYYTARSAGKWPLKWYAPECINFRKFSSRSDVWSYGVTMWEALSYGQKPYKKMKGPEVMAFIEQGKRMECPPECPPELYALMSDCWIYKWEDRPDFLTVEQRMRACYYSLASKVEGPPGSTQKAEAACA

[3] = target: T3, Zap70 K369A (full length) (human, UniProt P43403 1-619, K369A); assay: ELISA
T3 sequence (looked up): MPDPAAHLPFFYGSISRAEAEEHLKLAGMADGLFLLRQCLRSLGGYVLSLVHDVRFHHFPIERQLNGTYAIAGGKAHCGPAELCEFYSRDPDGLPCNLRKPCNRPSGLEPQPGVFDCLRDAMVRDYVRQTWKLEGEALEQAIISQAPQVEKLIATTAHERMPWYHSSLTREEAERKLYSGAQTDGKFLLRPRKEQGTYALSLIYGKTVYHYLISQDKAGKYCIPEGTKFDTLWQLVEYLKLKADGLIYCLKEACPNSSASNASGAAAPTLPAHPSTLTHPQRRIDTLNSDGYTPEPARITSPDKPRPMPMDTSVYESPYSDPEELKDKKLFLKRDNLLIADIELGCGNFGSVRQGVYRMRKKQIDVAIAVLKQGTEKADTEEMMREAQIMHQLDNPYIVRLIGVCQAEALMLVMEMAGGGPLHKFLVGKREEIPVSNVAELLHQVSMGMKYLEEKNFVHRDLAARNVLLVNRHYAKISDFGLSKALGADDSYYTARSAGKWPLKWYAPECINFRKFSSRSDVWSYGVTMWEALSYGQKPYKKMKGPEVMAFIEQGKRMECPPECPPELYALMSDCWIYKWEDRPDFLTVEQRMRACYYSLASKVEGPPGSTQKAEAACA

[4] = target: T4, wild-type Zap70 (full-length human Zap70) (human, UniProt P43403 1-619); assay: ELISA
T4 sequence (looked up): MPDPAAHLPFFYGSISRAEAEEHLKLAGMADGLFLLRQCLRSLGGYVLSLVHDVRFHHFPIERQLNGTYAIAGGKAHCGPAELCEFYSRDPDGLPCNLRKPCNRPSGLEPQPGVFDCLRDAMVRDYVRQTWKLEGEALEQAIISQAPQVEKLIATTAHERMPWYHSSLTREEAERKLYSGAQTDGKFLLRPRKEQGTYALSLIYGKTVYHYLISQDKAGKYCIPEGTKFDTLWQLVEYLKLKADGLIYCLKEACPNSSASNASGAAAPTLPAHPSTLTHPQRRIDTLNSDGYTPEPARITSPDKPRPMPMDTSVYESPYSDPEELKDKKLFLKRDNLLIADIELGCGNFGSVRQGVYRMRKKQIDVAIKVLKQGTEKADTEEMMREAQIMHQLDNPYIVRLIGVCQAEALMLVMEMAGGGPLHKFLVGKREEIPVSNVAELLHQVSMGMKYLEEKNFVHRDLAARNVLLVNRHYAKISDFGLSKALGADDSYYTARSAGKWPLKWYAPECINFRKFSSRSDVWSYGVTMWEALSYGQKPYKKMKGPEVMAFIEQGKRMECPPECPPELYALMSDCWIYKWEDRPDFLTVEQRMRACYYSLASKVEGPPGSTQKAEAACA

[5] = target: T4, wild-type Zap70 (full-length human …); assay: BLI
[6] = target: T1, Zap70 D461N (full length, …); assay: BLI
[7] = target: T2, Zap70 K369R (full length); assay: BLI
[8] = target: T3, Zap70 K369A (full length); assay: BLI

Measured: binding result

GGAGQDGVRQSRASDKQTLLPNDQLYQPLKDREDDQYSHLQGNQLRRN (domain or fragment, also: ITAM phosphorylated by Lck, sites not given here, GST fusion)
binds: [1] | [2] | [3] | [4]

C(Maleimide‑PEG2‑Biotin)AGQDGVRQSRASDKQTLLPNDQLYQPLKDREDDQYSHLQGNQLRRN (domain or fragment, also: ITAM phosphorylated by Lck, sites not given here) [bio-phosphorylated CD3γ^CD (biotinylated, phosphorylated cysCD3γ^CD, human CD3γ amino acids 137-182)]
binds: [5] | [6] | [7] | [8]
